In the DeepSol protein solubility set:

assay: soluble on expression in E. coli; label from the status in PepcDB or PDB records

Sequence | soluble on expression in E. coli
MSKKIILITGASSGFGRLTAEALAGAGHRVYASMRDIVGRNASNVEAIAGFARDNDVDLRTLELDVQSQVSVDRAIDQIIGEDGRIDVLIHNAGHMVFGPAEAFTPEQFAELYDINVLSTQRVNRAALPHMRRQKHGLLIWISSSSSAGGTPPYLAPYFAAKAAMDAIAVQYARELSRWGIETSIIVPGAFTSGTNHFAHSGVPDDHARQAEYEAGPNAGLGEEIKKAFAAIVPPDADVSLVADAIVRVVGTASGKRPFRVHVDPAEDGADVGFSVLDRLRAEMLHRVGLSDLLKPRALA | soluble
MSKKIRNTEVDHLFDAILTLENKEECYTFFEDVCTVNELLSISQRYEVAKMLREGKTYLDISNATGASTATISRVNRSLNYGNDGYDMVLERVLKKDE | not soluble
MSKLELLPAVDVRDGQAVRLVHGESGTETSYGSPLEAALAWQRSGAEWLHLVDLDAAFGTGDNRALIAEVAQAMDIKVELSGGIRDDDTLAAALATGCTRVNLGTAALETPEWVAKVIAEHGDKIAVGLDVRGTTLRGRGWTRDGGDLYETLDRLNKEGCARYVVTDIAKDGTLQGPNLELLKNVCAATDRPVVASGGVSSLDDLRAIAGLVPAGVEGAIVGKALYAKAFTLEEALEATSLEPG | soluble
MSKPIEIEIRRAPVLGSSMAYRETGAQDAPVVLFLHGNPTSSHIWRNILPLVSPVAHCIAPDLIGFGQSGKPDIAYRFFDHVRYLDAFIEQRGVTSAYLVAQDWGTALAFHLAARRPDFVRGLAFMEFIRPMPTWQDFHHTEVAEEQDHAEAARAVFRKFRTPGEGEAMILEANAFVERVLPGGIVRKLGDEEMAPYRTPFPTPESRRPVLAFPRELPIAGEPADVYEALQSAHAALAASSYPKLLFTGEPGALVSPEFAERFAASLTRCALIRLGAGLHYLQEDHADAIGRSVAGWIAGIEAVRPQLAAVD | soluble
MSKRNTQLRRHAISNMVNELGEVSVDELAQKFETSEVTIRKDLASLEKNGQLLRRYGGAIAIPTEVIHEELSSNVSTRKLSLAKAAASLIRDHNRIVIDSGSTTAALIQQLNDKRGLVVMTNSLHVANALNELESEPTLLMTGGTWDTHSESFQGKVAESVLRAYDFDQLFIGADGIDLERGTTTFNELVGLSKVMAEVSREVIVMIESEKIGRKIPNLELAWHQIDVLVTDADIQPEHKVQIEQHGVKVICALEHHHHHH | soluble
MSKSESPKEPEQLRKLFIGGLSFETTDESLRSHFEQWGTLTDCVVMRDPNTKRSRGFGFVTYATVEEVDAAMNARPHKVDGRVVEPKRAVSREDSQRPGAHLTVKKIFVGGIKEDTEEHHLRDYFEQYGKIEVIEIMTDRGSGKKRGFAFVTFDDHDSVDKIVIQKYHTVNGHNCEVRKALSKQEMASASSSQRGR | soluble
MSKSPDAFRTISEVAEWLGVQAHVLRFWESKFNQVKPVKRAGGRRYYRPADMQLLGGIKKLLHDDGMTIKGVQKLLREQGVAHVAEQSQD | not soluble
MSKVKTRFAPSPTGYLHLGNARTAIFSYLFARHNNGGFVLRIEDTDPERSKKEYEEMLIEDLKWLGIDWDEFYRQSERFDIYREYVNKLLESGHAYPCFCTPEELEKEREEARKKGIPYRYSGKCRHLTPEEVEKFKKEGKPFAIRFKVPENRTVVFEDLIKGHIAINTDDFGDFVIVRSDGSPTYNFVVVVDDALMGITHVIRGEDHIPNTPKQILIYEALGFPVPKFAHLPVILGEDRSKLSKRHGAVSVRAYREEGYMPEALFNYLCLLGWSPPEEGREIFSKEELIKIFDLKDVNDSPAVFNKEKLKWMNGVYIREVLPLDVLLERAIPFLEKAGYDTSDREYIKKVLEYTRDSFDTLSEMVDRLRPFFVDEFEIPEELWSFLDDEKAYQVLSAFLEKIREKKPETPQEVKKLAKEIQKALKVKPPQVWKPLRIALTGELEGVGIDILIAVLPKEKIEKRILRVLEKLS | soluble
MSLADRLTIGEFSRITHLSIRMLRRYHEQDLLVPAEVDPDTGYRYYSPAQIRPALTVRRFRDLDLPLADLRRFLAAESADGPDDGTAQQVVAAHLRRLEDRLGRTQRAVEVLRELLDPEAERAVTLEELPARRVLAVTLDVPEGAGLDWYDEAMCDVDSAAGERSVLPPGGRYEHTLFTEGHGRATVYVPFEAPLPPEMPGRVRELHLPRRTAAVATHQGRHDDLDLTYGAVGSFAARNDLRSQDLVEEVYLVGPRDTDRPELWRTLVAWLIAPENEGHHHHHH | soluble
MSLAESAFSERIVQNLLDTDFYKLTMMQAVLHNYPNAEVEWEFRCRNQEDLRLYLPAIREQLEYLAGLAISDEQLAFLERIPFLAPDFIRFLGLFRFNPRYVQTGIENDEFFLRLKGPWLHVILFEVPLLAMISEVRNRARYPAATVEQARERLQEKFDWLRREASAEELAGFKMADFGTRRRFSYRVHEAVVSGLKEDFPGCFVGTSNVHLARKLDLKPLGTMAHEWLMAHQQLGPRLIDSQSAALDCWVREYRGLLGIALTDCITTDAFLRDFDLYFAKLFDGLRHDSGDPLLWAEKTIAHYLKLGIDPLTKTLVFSDGLDLPRALKIYRALQGRINVSFGIGTHFTCDLPGVEPMNIVVKMSACNGHPVAKISDTPGKAQCRDPDFIHYLKHVFQVAEGHHHHHH | soluble
MSLAEVTVVNFGGANGDAQKAAFNKPFEAQTGNKVTAVEYNGEQAKIKAMVEAKHVNWDVVEVESGDIGRGCDEGLFEKLDWSKIAKKADLVPEAPHTCGVGFFVWSTALAYNADKLKAAPSGWADFWDVKKFPGKRGMRKGARYNLEFALMADGVPVKDVYKVLATKDGQNRAFKKLDQLKPYIQWWEAGAQPPQFLVAGDVVMSTAFNGRIDAAQREGKNLKVVWNGSIYDLDYWAIPKGTPNKALAEQYIAYTLSQKAQQEYAKHIAYGPANLAAIKALDAKTQANLPNSPENGKSAVLQNLQFWTDHGDELEQRFASWASKEGHHHHHH | soluble
MSLAFGLDKLVDLLKAAGEPTRFRLLALLSAGDLTVTDLTEILGQSQPRISRHLKLLTEEGLIERYQEGAWAYFRLRQDGEPAVVVRQLLGAASPSDAVLQRDSERLATVKRVRAERAQDYFSRNASAWDELRRLHVSDEAVEGALLKLVGTTPIDSLLDLGTGTGRILQLLSGIYRRAIGVDASRDMLSVARANLDKAGVGNASVRHGDILNLPLEGQDFDLIVIHQVLHFLDQPEIALSEAARMLRPGGRLIVIDLAPHSFEYLRDEHAHVRLGFSHPLMEEWMKKAGLSLERAVDLHSEKASDEALDVTIWVARDQRLLMADDVVQEAVLLRSGRAEGHHHHHH | soluble
MSLAIGDILRKSARRFPDRVALTDGGRSVTYTELERDANRFANALVARGLKPGAKISTVCNNSIEFVKALFGIHRAGLVWVPINTMLGPDDMGYILDHAGVKVAVIDDNLHGQPERRAALEARGIDLIAINLAGKAADTGLPVFDQLIEGLSEIEPDVAFDDRDLAMIIYTSGTTSRPKGAMHCHLAVTMAVMSNAIEMQLSRKDGITGQFPLFHCAAHVLLLSYLIVGGQMAIMRGFDPVACMEAIQRNKLTVFIGLPLMYQVILDHPRRKEFDLSSLRCCIYTMAPMPRPLLERAIAELCPTFVQPSGQTEMYPATTMSQPDRQLARFGNYWGESTLVNETAIMDDAGNLLPPGEVGEIVHRGPNVMLGYYKDPEATEAARKFGWHHTGDLALIDEHGEVLFLDRKKDMIKSGGENVASIKIEETLLAHPSVMNAAVVGLPHPQWGEAVSGFVKLKPGASATEAEIVEHCKKHLGGFQVPKLLRIVDEMPMTATGKLRKVELRNQFTDHFMLGQTEGHHHHHH | soluble
MSLAIGRILIIDDENINAETMMDTLEDVNYHVVLAANANQAKTIVEDQIFDLVMMDVWMPAQDGMSLLEEWTQSGFSTPIVMMSGHAEHQDVVKAIKLGAVDFLEKPLHDILPLVRKILSEQVLEKSEHTINGIEFNAPLKEARNIFEVQYFNHHLQENKHNIAKVAILAGLERTTLYRKLKDLGIDKEGHHHHHH | soluble
MSLAILIKNRIGKGYPIYTSTVLNEKLSDEGNLTFDILENENTYDLISAVSKMWTVHNVAGPDDKRVFVITIIDRQSRGEKQYVSITARQKEIDDLMTQRIYSNVTGSFTVENYFKIVFQGSGYKYKIPIKVPSSRWENAGDGDSRYEMFKNGLERYDLEYTYDPSNKTFTLEPFVEKKTSYYISSKVNANNLKLEEDASECYTYIRGYGGFEEDESFMQGSVQVEFTHPLAKVIGKREAPPKIDGRITNIETMKREIEAIIAQSLKTSLSLDFVALREVFPSAVPRIGDLVPVRDDIIDINDSVRIIEIKTTRDAHNKIIKQDVVLGDIRRRDRYTKSVNNAATLASGLGGGSEGHHHHHH | soluble
MSLAITTSPPTVSDTKRIFYANYKKLLLPLYNTPIQNMLVKQHIHRYNKNYTYSDVSALGIVTTLDSVLNTFPDDEKTSIKNAFIISLNEDPEMYYSNIESLKPYAKSSHLGPNKHGNTLQKSLYDIAINDKYVYSSFAAVGIFKLLQMNGNYTGNSVKHLSESIGFKGELVHKDIATFFSLLKYIESSQKLADDIREESLKREGHHHHHH | soluble
MSLALIVQKFGGTSVGTVERIEQVAEKVKKFREAGDDVVVVVSAMSGETNRLIGLANQIMEQPVPRELDVMVSTGEQVTIALLSMALIKRGVPAVSYTGNQVRILTDSAHTKARILHIDDTHIRADLKAGRVVVVAGFQGVDGNGNITTLGRGGSDTTGVALAAALKADECQIYTDVDGVYTTDPRVVPQARRLDKITFEEMLEMASLGSKVLQIRAVEFAGKYNVPLRVLHSFQEGPGTLITIDDEEESMEQPIISGIAFNRDEAKLTIRGVPDTPGVAFKILGPISAANVEVDMIVQNVAHDNTTDFTFTVHRNDYLNALEILKQTAANIGAREAIGDTNIAKVSIVGVGMRSHAGVASRMFEALAKESINIQMISTSEIKVSVVIEEKYLELAVRALHTAFELDAPARQGEEGHHHHHH | soluble
MSLANKPLAKALETISGIPITPFRKSDGSIDWHHYKETVDRIVDNGIDVIVPCGNTSEFYALSLEEAKEEVRRTVEYVHGRALVVAGIGYATSTAIELGNAAKAAGADAVMIHMPIHPYVTAGGVYAYFRDIIEALDFPSLVYFKDPEISDRVLVDLAPLQNLVGVKYAINDLPRFAKVVRSIPEEHQIAWICGTAEKWAPFFWHAGAKGFTSGLVNLLPQKAVEMLEALRNNDNDAVWRIWEDIVPFEDLRGKYNQGNNVVVIKEAMEMLRQNAGVTRAPVNELSNEDKQLVTELLSSWKLLQPTKGEGHHHHHH | soluble
MSLANWVASSTVTADGHHLLGNPAAKLRLVEFVSYTCPHCSHFEIESEGQLKIGMVQPGKGAIEVRNFVRDPIDMTVALITNCVPPSRFFTLHTAFMRSQAQWIGPLANSTEAQRQRWFNGTFATRTRAIASDFRFYDFMAARGMDRSTLDRCLSNEALAKKLAAETDEAINQYNVSGTPSFMIDGILLAGTHDWASLRPQILARLNEGHHHHHH | soluble
MSLAPCGLVPSARQLEWYNREMIAFFHFGINTFEEYVNEGDGKASTAIFNPTALDCRQWMQTLKAAGIPAAILTAKHADGFCLWPSKYTDYSVKNAAWKNGKGDVVREFVDACEEYGLKAGIYLGPHDRHEHLSPLYTTERYKEYYAHQLGELMSDYGKIWETWWDGAGADELTTPVYRHWYKIVREKQPDCVIFGTKNSYPFADVRWMGNEAGEAGDPCWATTDSVAIRDEAQYYKGLNEGMLDGDAYIPAETDVSIRPSWFYHAEEDSRVKSVRELWDIYCTSVGRNSVLLLNFPPDRRGLIHSTDSLHAALLKQGIDETFSTNLLRGAKVKATNVRGAKYSPEKMLDNEKNTYFAGKDGEVKADIIFTLPKTIEFDCLMIEEVIELGHRTTKWSVEYTVDGKNWITIPEATDKQAIGHKWIVRLAPVKAKQVRLRIQDGKACPAIHTFGVYKQSPVFKEGHHHHHH | soluble
